Legend:
Assay in all cases: pre-steady-state rapid-quench kinetics
[1] = biological target: MGMT G156C (Homo sapiens, UniProt P16455 1-207, G156C)
[2] = biological target: MGMT G132R (Homo sapiens, UniProt P16455 1-207, G132R)
[3] = biological target: MGMT WT (Homo sapiens, UniProt P16455 1-207)
Chain of MGMT WT (P16455 whole entry): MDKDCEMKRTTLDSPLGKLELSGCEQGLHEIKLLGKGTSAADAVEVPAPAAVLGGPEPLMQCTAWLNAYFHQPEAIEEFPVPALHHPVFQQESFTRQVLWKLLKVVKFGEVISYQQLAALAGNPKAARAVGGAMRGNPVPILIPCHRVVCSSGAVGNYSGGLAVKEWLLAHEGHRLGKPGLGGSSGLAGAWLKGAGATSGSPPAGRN

Chain of MGMT G156C (P16455 whole entry G156C): as the sequence (P16455 whole entry) above, with G156C counted along it
Chain of MGMT G132R (P16455 whole entry G132R): as the sequence (P16455 whole entry) above, with G132R counted along it

B1: PvuIITopD/PvuIIBottom (O6MeG 18 bp duplex) (dsDNA)
DNA 1: GCCCGGCCAGCTGCAGTT
DNA 2: AACTGCAGCTGGCCGGGC
modifications: O6-methylguanine at position 13 of strand 1 (printed as X), paired with C
Q: Which Kd [1] does the source give for B1 here?
A: 240 ± 60 nM

Q: And the Kd [2]?
A: 14 ± 3 nM

Q: What about the Kd [3] of the same binder?
A: 6.2 ± 0.7 nM

Reference: paper PMC3720794
